Laboratory results reported in PMC5640506 (2017).

B1: dimerized K33/K11 affimer, fluorescently labelled (designed binder)
chain: ENSLEIEELARFAVDEHNKKENALLEFVRVVKAKEQIWEMDASKETMYYLTLEAKDGGKKKLYEAKVWVKMTHWIGAMNNFKELQEFKPVENSLEIEELARFAVDEHNKKENALLEFVRVVKAKEQIWEMDASKETMYYLTLEAKDGGKKKLYEAKVWVKMTHWIGAMNNFKELQEFKPV
modifications: Alexa488-maleimide or NT-647-maleimide on a single cysteine
B2: dimerized K6 affimer, fluorescently labelled (designed binder)
chain: ENSLEIEELARFAVDEHNKKENALLEFVRVVKAKEQSWKDDELFDTMYYLTLEAKDGGKKKLYEAKVWVKASGIVMYQMNFKELQEFKPVENSLEIEELARFAVDEHNKKENALLEFVRVVKAKEQSWKDDELFDTMYYLTLEAKDGGKKKLYEAKVWVKASGIVMYQMNFKELQEFKPV
modifications: Alexa488-maleimide or NT-647-maleimide on a single cysteine
B3: K33 affimer (designed binder)
chain: MSAATGVRAVPGNENSLEIEELARFAVDEHNKKENALLEFVRVVKAKEQIWEMDASKETMYYLTLEAKDGGKKKLYEAKVWVKMTHWIGAMNNFKELQEFKPVGDAAAAHHHHHHG

Legend:
K48 diUb = K48 diUb (Homo sapiens); experiment: MST
K29 diUb = K29 diUb (Homo sapiens); experiment: MST
K63 diUb = K63 diUb (Homo sapiens); experiment: MST
K6-linked diUb = K6-linked diUb (UniProt P0CG47 1-76, K6-linked: one Ub is ubiquitinated on the side chain of K6); experiment: MST
K11-linked diUb [1] = target: T1, K11-linked diUb (UniProt P0CG47 1-76, K11-linked: one Ub is ubiquitinated on the side chain of K11); experiment: MST
K33-linked diUb = K33-linked diUb (UniProt P0CG47 1-76, K33-linked: one Ub is ubiquitinated on the side chain of K33); experiment: MST
K11-linked diUb [2] = target: T1, K11-linked diUb; experiment: ITC

| Binder | Kd (K48 diUb) | Kd (K29 diUb) | Kd (K63 diUb) | Kd (K6-linked diUb) | Kd (K11-linked diUb [1]) | Kd (K33-linked diUb) | Kd (K11-linked diUb [2]) |
| --- | --- | --- | --- | --- | --- | --- | --- |
| B1 | 120 µM | 61 µM | 83 µM | 210 µM | – | – | – |
| B2 | 82 µM | 55 µM | 130 µM | – | 49 µM | 120 µM | – |
| B3 | – | – | – | – | – | – | 7 nM |
